Laboratory results published in US20170102390A1.

How the values were obtained:
[1] = biological target: CK8/18 Ab (mouse antibody detected by the secondary anti-mouse antibody); assay: microscopy count on SKBR3 cells; 80 uL anti-mouse IgG-biotin, 7.5 uL Mag-Strept, 0 uL Mag-anti FITC
[2] = biological target: CK8/18 Ab (mouse antibody detected by the secondary anti-mouse antibody); assay: microscopy count on SKBR3 cells; 80 uL anti-mouse IgG-biotin, 7.5 uL Mag-Strept, 7.5 uL Mag-anti FITC

- Carrier particles per cancer cell (carrier particles per cancer cell) [1]: 133
- Carrier particles per cancer cell (carrier particles per cancer cell) [2]: 1110
Substance: Secondary antibody-biotin = goat anti-mouse IgG biotin (whole molecule)-Biotin
